Laboratory results taken from PMC8934651, “Yeast Ssd1 is a non-enzymatic member of the RNase II family with an alternative RNA recognition site”.

How the values were obtained:
[1] = biological target: T1, Ssd1 ΔN338 (Saccharomyces cerevisiae (S288C/BY4741 …, UniProt P24276 339-1250)); experiment: fluorescence anisotropy; Anisotropy: 20 nM RNA, 20 mM HEPES pH 7.5, 150 mM NaCl, 1 mM DTT, 0.01% Tween 20, 15 and 30 min on ice; EMSA: 0.5 uM RNA, 20 mM HEPES pH 7.5, 150 mM K acetate; details: protein: recombinant, tags: His tag cleaved with 3C protease
T1 sequence: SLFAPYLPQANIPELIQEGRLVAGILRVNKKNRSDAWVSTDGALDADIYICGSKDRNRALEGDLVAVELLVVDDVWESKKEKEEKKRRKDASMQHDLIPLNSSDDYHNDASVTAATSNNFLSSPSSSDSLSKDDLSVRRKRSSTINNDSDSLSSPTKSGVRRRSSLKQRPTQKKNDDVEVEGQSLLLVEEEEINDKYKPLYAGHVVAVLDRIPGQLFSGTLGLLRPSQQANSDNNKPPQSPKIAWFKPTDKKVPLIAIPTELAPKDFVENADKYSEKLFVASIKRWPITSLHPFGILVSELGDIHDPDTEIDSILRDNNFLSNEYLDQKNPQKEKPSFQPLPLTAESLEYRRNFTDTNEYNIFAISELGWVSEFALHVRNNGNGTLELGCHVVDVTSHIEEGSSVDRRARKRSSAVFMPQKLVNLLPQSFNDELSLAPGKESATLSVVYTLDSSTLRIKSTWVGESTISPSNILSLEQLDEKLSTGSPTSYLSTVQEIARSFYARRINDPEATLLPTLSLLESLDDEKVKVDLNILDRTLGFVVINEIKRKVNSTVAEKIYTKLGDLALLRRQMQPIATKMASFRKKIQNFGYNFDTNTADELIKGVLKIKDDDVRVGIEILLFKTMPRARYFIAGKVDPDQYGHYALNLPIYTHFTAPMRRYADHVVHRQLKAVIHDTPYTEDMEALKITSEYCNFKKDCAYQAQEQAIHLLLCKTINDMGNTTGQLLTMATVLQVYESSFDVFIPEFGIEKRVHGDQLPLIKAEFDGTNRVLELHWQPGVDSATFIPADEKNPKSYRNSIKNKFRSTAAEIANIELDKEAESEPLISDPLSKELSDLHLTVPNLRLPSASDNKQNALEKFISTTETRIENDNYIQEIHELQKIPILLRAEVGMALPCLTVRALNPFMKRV

[2] = biological target: T1, Ssd1 ΔN338; experiment: EMSA; 5 mM Mg acetate; no significant binding; Anisotropy: 20 nM RNA, 20 mM HEPES pH 7.5, 150 mM NaCl, 1 mM DTT, 0.01% Tween 20, 15 and 30 min on ice; EMSA: 0.5 uM RNA, 20 mM HEPES pH 7.5, 150 mM K acetate; details: protein: recombinant; tags: His tag cleaved with 3C protease; label: 5'-DY681
[3] = biological target: T1, Ssd1 ΔN338; experiment: fluorescence anisotropy; Anisotropy: 20 nM RNA, 20 mM HEPES pH 7.5, 150 mM NaCl, 1 mM DTT, 0.01% Tween 20, 15 and 30 min on ice; EMSA: 0.5 uM RNA, 20 mM HEPES pH 7.5, 150 mM K acetate; details: protein: recombinant; tags: His tag cleaved with 3C protease; label: 5'-Cy3

B1: SUN4-DUO_Mut2 (ssRNA)
RNA: CUUCCAACUAAUUUUUAUCCCUCUAA
B1 showed a Kd ([1]; label: 5'-Cy3) of 0.104 µM.

B2: CCACCU-16mer (CCAACU motif) (ssRNA)
RNA: AGAACUCUUCCAACUA
B2: no binding [2].

B3: DUO-25mer (ssRNA)
RNA: CUUCCAACUAAUUUUCACUCCUUUAA
Binder B3 has a Kd ([1]; label: 5'-Cy3 (anisotropy)) of 0.008 µM.

B4: SUN4-DUO_Mut3 (ssRNA)
RNA: CUUCCGGCUAAUUUUUAUCCCUCUAA
With B4 the binding signal [3] was ~10 fold further loss of affinity (vs Mut2).

B5: DUO-21mer (ssRNA)
RNA: CAACUAAUUUUCACUCCUUUAA
Work on B5 yielded a Kd ([1]; label: 5'-Cy3) of 0.036 µM.

B6: DUO-19mer (ssRNA)
RNA: ACUAAUUUUCACUCCUUUAA
Work on B6 yielded a Kd ([1]; label: 5'-Cy3) of 0.042 µM.

B7: SUN4-DUO_Mut1 (ssRNA)
RNA: CUUCCGGCUAAUUUUCACUCCUUUAA
B7 was tested, and the binding signal [3] was ~2 fold reduction in affinity vs DUO-25mer.

B8: SEE-15mer (ssRNA)
RNA: AUUUUCACUCCUUUAA
With B8 the Kd ([1]; label: 5'-DY681 (EMSA), 5'-Cy3 (anisotropy)) was 0.166 µM.

B9: DUO-17mer (ssRNA)
RNA: UAAUUUUCACUCCUUUAA
For B9, the Kd ([1]; label: 5'-Cy3) was 0.124 µM.
